Patent US20240317826A1, “COMPOSITIONS AND METHODS FOR TREATING AND/OR I[…] AGENT FOR TREATING HIV-1 INFECTIONS” (priority 2021, published 2024)

How the values were obtained:
GST-INI1 = GST-INI1 (UniProt Q12824); assay: GST pull-down, bound protein quantitated from Western blot (FIG. 15c)
GST-SAP18 = GST-SAP18 (UniProt O00422); assay: as above
[1] = molecular target: GST-CTD (C-terminal domain of HIV-1 integrase, aa 201-288, GST fusion) (HIV-1 (Hx3B)) (UniProt P04585); assay: Alpha; GST-CTD 0.027 uM
[2] = molecular target: GST-CTD (C-terminal domain of HIV-1 integrase, aa 201-288, GST fusion) (HIV-1 (Hx3B)) (UniProt P04585); assay: Alpha; GST-CTD 0.083 uM

Sequence of GST-SAP18 (O00422 whole entry, the tested form may be a part): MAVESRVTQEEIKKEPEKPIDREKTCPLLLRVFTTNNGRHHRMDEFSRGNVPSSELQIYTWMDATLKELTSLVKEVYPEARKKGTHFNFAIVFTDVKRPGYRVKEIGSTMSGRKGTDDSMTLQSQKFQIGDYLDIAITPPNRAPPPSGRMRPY

## His6-IN(W235E) (enzyme)
GST-INI1
  % binding: < 5%
GST-SAP18
  % binding: 20%

## His6-SUMO-INI1183-304 (from UniProt Q12824 183-304)
[1]
  Kd: 3.5 nM
[2]
  Kd: 3 nM
